Patent US20070104647A1

Assays:
[1] = molecular target: transferrin receptor on 293F and HT29 cells (UniProt P02786); test: FACS, non-transfected 293F cells
[2] = molecular target: transferrin receptor on 293F and HT29 cells (UniProt P02786); test: cell-based or functional assay
[3] = molecular target: transferrin receptor on 293F and HT29 cells (UniProt P02786); test: FACS, Ovr115-transfected 293F cells
[4] = molecular target: Full length HA-tagged Ovr115 (Met1-Leu435) expressed on transfected LMTK or 293F cells (human) (UniProt Q9NRS4); test: FACS, Ovr115-HA LMTK cells
[5] = molecular target: Full length HA-tagged Ovr115 (Met1-Leu435) expressed on transfected LMTK or 293F cells (human) (UniProt Q9NRS4); test: FACS, Ovr115-transfected 293F cells
[6] = molecular target: Full length HA-tagged Ovr115 (Met1-Leu435) expressed on transfected LMTK or 293F cells (human) (UniProt Q9NRS4); test: FACS on Ovr115 transfected mouse LMTK cells, PE conjugate alone without MAb [panel A]

Chain of UniProt P02786 (P02786 whole entry): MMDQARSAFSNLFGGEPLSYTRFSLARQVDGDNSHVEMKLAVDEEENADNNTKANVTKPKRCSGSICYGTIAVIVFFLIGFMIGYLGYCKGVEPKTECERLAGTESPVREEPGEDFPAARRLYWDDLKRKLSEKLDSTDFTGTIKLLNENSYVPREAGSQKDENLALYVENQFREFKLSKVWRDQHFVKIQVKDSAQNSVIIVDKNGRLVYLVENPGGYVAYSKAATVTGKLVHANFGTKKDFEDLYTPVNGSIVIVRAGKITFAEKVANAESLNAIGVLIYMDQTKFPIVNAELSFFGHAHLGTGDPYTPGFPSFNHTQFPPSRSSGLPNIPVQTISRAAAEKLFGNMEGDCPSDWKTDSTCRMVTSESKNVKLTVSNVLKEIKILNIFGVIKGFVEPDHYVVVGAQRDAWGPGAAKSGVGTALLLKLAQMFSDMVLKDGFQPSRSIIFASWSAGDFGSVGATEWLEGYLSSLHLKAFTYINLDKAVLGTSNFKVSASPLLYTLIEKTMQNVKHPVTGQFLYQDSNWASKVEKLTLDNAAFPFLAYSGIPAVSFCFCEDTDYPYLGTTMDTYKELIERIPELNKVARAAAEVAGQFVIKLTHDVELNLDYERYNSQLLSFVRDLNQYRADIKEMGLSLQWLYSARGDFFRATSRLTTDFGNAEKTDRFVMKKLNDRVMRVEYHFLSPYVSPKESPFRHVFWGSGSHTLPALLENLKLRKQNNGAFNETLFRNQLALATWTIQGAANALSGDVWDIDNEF

| Substance | % cells positive [1] [%] | MFI [1] | Percent Growth Inhibition Compared to Wells with Medium Alone; HT29; MAb (0.08 µg/mL) + MAb Zap saporin conjugate [2] [%] | Percent Growth Inhibition Compared to Wells with Medium Alone; HT29; MAb (0.4 µg/mL) + MAb Zap saporin conjugate [2] [%] | Percent Growth Inhibition Compared to Wells with Medium Alone; HT29; MAb (2 µg/mL) + MAb Zap saporin conjugate [2] [%] | % cells positive [3] [%] | MFI [3] | % cells positive [4] [%] | MFI [4] | % cells positive [5] [%] | MFI [5] | Mean of Fluorescence [6] |
| --- | --- | --- | --- | --- | --- | --- | --- | --- | --- | --- | --- | --- |
| 5E9C11 (antibody) | 99.8 | 54.3 | 18 | 58 | 35 | 99.4 | 71.1 | – | – | – | – | – |
| Anti-HA MAb (Covance) (antibody) | – | – | – | – | – | – | – | 61 | 19 | – | – | – |
| phycoerythrin (PE) conjugated donkey anti-mouse IgG Fc antibody | – | – | – | – | – | – | – | 0.6 | 2.15 | 1.7 | 0.567 | 0.57 |
